Biological target: the molecule itself
Test: SEC

B1: cyclohexadienyl dehydratase from Pseudomonas aeruginosa (PaCDT) (enzyme, UniProt Q01269 26-268, looked up)
chain: QESRLDRILESGVLRVATTGDYKPFSYRTEEGGYAGFDVDMAQRLAESLGAKLVVVPTSWPNLMRDFADDRFDIAMSGISINLERQRQAYFSIPYLRDGKTPITLCSEEARFQTLEQIDQPGVTAIVNPGGTNEKFARANLKKARILVHPDNVTIFQQIVDGKADLMMTDAIEARLQSRLHPELCAVHPQQPFDFAEKAYLLPRDEAFKRYVDQWLHIAEQSGLLRQRMEHWLEYRWPTAHGK
  stoichiometry N: 3
